doi:10.1101/756874, “Spontaneous oligomerization of BAK/BAX is suppressed by hetero-dimerization with MCL-1” (bioRxiv, 2019)
No end group written: not given here. *: point of attachment. TAMRA = 5-carboxytetramethylrhodamine, CN(C)c1ccc2c(-c3ccc(C(=O)*)cc3C(=O)[O-])c3ccc(=[N+](C)C)cc-3oc2c1

B1: MCL-1 (UniProt:Q07820, residues 168–327, C286S) (domain or fragment, human)
chain: GSEEEEDELYRQSLEIISRYLREQATGAKDTKPMGRSGATSRKALETLRRVGDGVQRNHETAFQGMLRKLDIKNEDDVKSLSRVMIHVFSDGVTNWGRIVTLISFGAFVAKHLKTINQESSIEPLAESITDVLVRTKRDWLVKQRGWDGFVEFFHVEDLEGG
notes: extra GS left at the N-terminus after removal of the tag with thrombin; human MCL-1, residues 168-327, without the disordered N-terminus and the C-terminal transmembrane region; Theoretical mass 18409.74 Da; source: E. coli C41(DE3), purified (Ni-NTA, thrombin cleavage, cation exchange, SEC); not shown: His6, N-terminal, cleaved
B3: BAK (UniProt:Q16611, residues 16–185, C166S) (domain or fragment, human, UniProt Q16611 16-185, looked up)
chain: EPALPSASEEQVAQDTEEVFRSYVFYRHQQEQEAEGVAAPADPEMVTLPLQPSSTMGQVGRQLAIIGDDINRRYDSEFQTMLQHLQPTAENAYEYFTKIATSLFESGINWGRVVALLGFGYRLALHVYQHGLTGFLGQVTRFVVDFMLHHSIARWIAQRGGWVAALNLGN
notes: human BAK, residues 16-185, without the short disordered N-terminal segment and the C-terminal transmembrane helix; cysteine mutated to serine; Monomeric in buffer, oligomeric in detergent; the same construct in all experiments; Theoretical mass 19217.64 Da; also called 'wild-type' BAK (no cysteines); source: E. coli BL21(DE3), purified (chitin resin, intein self-cleavage with DTT, SEC); not …

What was measured:
Conditions in all cases: both partners purified
[1] = target: B3; assay: SEC; proteins pre-incubated in detergent (PS20, C12E8 and others, at the multiples of CMC given in the legends); Superdex 200 Increase 10/300 GL, 50 mM sodium phosphate pH 7.0
[2] = target: T1, BAX (UniProt:Q07812, residues 1–171, C62S, C126S) (human, UniProt Q07812 1-171, C62S | C126S); assay: native MS; 5 μM total protein (equimolar), 100 mM ammonium acetate pH 7.0, PS20 5xCMC, at least 3 h at room temperature
T1 construct: human BAX, residues 1-171, without the C-terminal transmembrane helix; cysteines mutated to serines; Theoretical mass 18933.65 Da; source: E. coli C41(DE3), purified (chitin resin, intein self-cleavage with DTT, SEC); not shown: intein, C-terminal, cleaved
T1 sequence (Q07812 1-171 C62S/C126S, one chain of several): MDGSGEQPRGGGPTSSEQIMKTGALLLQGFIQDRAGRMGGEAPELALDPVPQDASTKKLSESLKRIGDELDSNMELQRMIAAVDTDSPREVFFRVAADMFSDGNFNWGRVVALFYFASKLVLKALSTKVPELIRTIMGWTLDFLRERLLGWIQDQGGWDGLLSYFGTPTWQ

[3] = target: B1; assay: SEC; proteins pre-incubated in detergent (PS20, C12E8 and others, at the multiples of CMC given in the legends); Superdex 200 Increase 10/300 GL, 50 mM sodium phosphate pH 7.0
[4] = target: B1; assay: fluorescence polarisation; kinetics; BAK and MCL-1 pre-incubated in PS20 (20xCMC), then dye-labelled BH3 peptide added; change in TAMRA fluorescence polarisation fitted to a single exponential
[5] = target: B1; assay: stopped-flow association kinetics + other: out-competition dissociation kinetics; affinities of BH3 peptides for MCL-1 in buffer without detergent (Table 1); how Kd was obtained is not told in the text shown
[6] = target: B1; assay: out-competition dissociation kinetics (fluorescence); pre-formed equimolar complex of MCL-1 and TAMRA-labelled BH3 peptide diluted into 50–400 molar excess of un-labelled PUMABH3; TAMRA fluorescence intensity or polarisation; manual mixing or stopped-flow; buffer without detergent

Binder: B1
- binding result [1]: binds
- binding result [2]: binds

B2: BIDBH3, TAMRA-labelled 35-residue peptide (UniProt:P55957, residues 76–110) (peptide, UniProt P55957 76-110, looked up)
peptide: {TAMRA}-SESQEDIIRNIARHLAQVGDSMDRSIPPGLVNGLA
notes: source: synthetic peptide, bought: Biomatik
- binding result [3]: binds

Binder: B3
- half-life (displacement of BAK:MCL-1 hetero-dimers by PUMA) [4]: ~17 min

B4: BAKBH3, TAMRA-labelled 35-residue peptide (UniProt:Q16611, residues 64–98, P64A) (peptide, UniProt Q16611 64-98, looked up)
peptide: {TAMRA}-ALQPSSTMGQVGRQLAIIGDDINRRYDSEFQTMLQ
notes: as for B2
- Kd [5]: 0.08 nM
- koff [6]: 0.00056 s⁻¹

B5: PUMABH3, un-labeled, recombinant (UniProt:Q9BXH1, residues 125–161, M144A) (peptide, UniProt Q9BXH1 125-161, looked up)
peptide: GVRGEEEQWAREIGAQLRRAADDLNAQYERRRQEEQQ
notes: human PUMA BH3, residues 125-161; theoretical mass 4442.75 Da is printed; not shown: His6, N-terminal, cleaved; GB1, N-terminal, cleaved
- binding result [6]: binds
